Data published in patent publication US5614198A, “Bowman-Birk Inhibitor compositions for treatment of inflammatory disease” (The Trustees of the University of Pennsylvania, priority 1995, dated 1997).
Entries after “also recorded” stand apart in the source; their conditions may differ.

B1: SBTI: soybean (Kunitz) trypsin inhibitor (protein, UniProt P01070 25-205, looked up)
Trypsin inhibitor A: DFVLDNEGNPLENGGTYYILSDITAFGGIRAAPTGNERCPLTVVQSRNELDKGIGTIISSPYRIRFIAEGHPLSLKFDSFAVIMLCVGIPTEWSVVEDLPEGPAVKIGENKDAMDGWFRLERVSDDEFNNYKLVFCPQQAEDDKCGDIGISIDHDDGTRRLVVSKNKPLVVQFQKLDKESL
B2: BBI: protease inhibitor derived from soybeans; 71 amino acid chain with 7 disulfide bonds, molecular weight approximately 8000 (protein, UniProt P01055 40-110, looked up)
Bowman-Birk type proteinase …: DDESSKPCCDQCACTKSNPPQCRCSDMRLNSCHSACKSCICALSYPAQCFCVDITDFCYEPCKPSEDDKEN
B3: COI: chicken ovoinhibitor (protein, UniProt P10184 1-517, looked up)
Ovoinhibitor: MTDWVLHHKVGPLDMTTRYIFPLLPLPFLPHSESKRAVCAPRCSAMRTARQFVQVALALCCFADIAFGIEVNCSLYASGIGKDGTSWVACPRNLKPVCGTDGSTYSNECGICLYNREHGANVEKEYDGECRPKHVTIDCSPYLQVVRDGNTMVACPRILKPVCGSDSFTYDNECGICAYNAEHHTNISKLHDGECKLEIGSVDCSKYPSTVSKDGRTLVACPRILSPVCGTDGFTYDNECGICAHNAEQRTHVSKKHDGKCRQEIPEIDCDQYPTRKTTGGKLLVRCPRILLPVCGTDGFTYDNECGICAHNAQHGTEVKKSHDGRCKERSTPLDCTQYLSNTQNGEAITACPFILQEVCGTDGVTYSNDCSLCAHNIELGTSVAKKHDGRCREEVPELDCSKYKTSTLKDGRQVVACTMIYDPVCATNGVTYASECTLCAHNLEQRTNLGKRKNGRCEEDITKEHCREFQKVSPICTMEYVPHCGSDGVTYSNRCFFCNAYVQSNRTLNLVSMAAC

What was measured:
[1] = tested on: proteolytic activity in colon mucosa; experiment: proteolytic activity in colon mucosal biopsy samples of DMH-treated rats (MCA substrates); type: in vivo, rat; conditions: for levels of proteolytic activity in colon mucosa of DMH-exposed animals: one month after last DMH dose, 0.1% dietary BBIC, FIG. 5; for Protease Activity/μg protein, Glt-Gly-Arg-MCA, Mean / Protease Activity/μg protein, Boc-Val-Leu-Lys-MCA, Mean / Protease Activity/μg protein, Boc-Val-Pro-Arg-MCA, Mean: rat colon biopsy one month after last DMH injection (total 80 mg/kg), 0.1% dietary inhibitor where given, 1 animal, 3 samples; for Protease Activity/μg protein, Glt-Gly-Arg-MCA, Mean: control 1.21; for Protease Activity/μg protein, Boc-Val-Leu-Lys-MCA, Mean: control 3.07; for Protease Activity/μg protein, Boc-Val-Pro-Arg-MCA, Mean: control 15.97
Protocol: The levels of proteolytic activity were determined as following. Colon mucosal biopsy samples were thawed on ice and homogenized in ice-cold PBS in a sterile teflon-glass homogenizer. The level of proteolytic activity was measured by incubating aliquots of sample in 0.1M Tris (pH 7.5)-5 mM CaC12, with each of the following synthetic substrates: Boc-Val-Pro-Arg-MCA; Boc-Val-Leu-Lys-MCA; and Glt-Gly-Arg-MCA (Peninsula Laboratories, Inc., Belmont, Calif.). These substrates were selected since it is known that the proteolytic activity cleaving these substrates is affected by BBI. After a 2 hour incubation at 37° C., the reaction was terminated by dilution with 1.8 ml distilled H2 O. Release of the fluorescent reporter group, amino-methyl coumarin, was determined spectrophotometrically at excitation and emission wavelengths of 380 and 460 nm, respectively. […] Data were standardized on the basis of protein content and expressed as proteolytic activity/μg protein.
In these studies, animals were untreated or treated twice weekly for three weeks with DMH. […] One group of treated animals was also exposed to 0.1% dietary BBIC during and after the DMH injection period. Animals were killed one month after the last DMH injection was given. Colon biopsy samples were obtained and proteolytic activity levels were determined as described for the human mucosal biopsy samples.

[2] = tested on: TPA-activated polymorphonuclear leukocytes (PMNs); conditions: TPA-activated human PMNs (Frenkel et al.); cited from earlier work
[3] = tested on: C3H10T1/2 cells; conditions: Yavelow et al., 1985; cited from earlier work
[4] = tested on: DMH-induced colon and liver carcinogenesis; conditions: 0.5% of the diet or less (St. Clair et al.); cited from earlier work
[5] = tested on: trypsin; experiment: gelatin zymogram, trypsin control lanes; type: biochemical; conditions: 10 μg/ml; 5 ng trypsin; lanes 4 and 6 vs lane 1
Protocol: BBI or BBIC (at 10 μg/ml) was added to some of the biopsy sample homogenates and protease activity was analyzed on gelatin zymograms. The same rat colon sample from a 14 day DNBS/ethanol treated rat was used for the protease/zymogram analyses. The gel was run at 200 V for 40 minutes and was then cut into pieces. Each gel/column was treated as follows: 1) Control-contained 5 ng trypsin; 2) UC sample incubated in Tris at pH 8.0; 3) UC sample incubated in Tris at pH 8.0 with BBI added to achieve a final concentration of 10 μg/ml; 4) Control-contained 5 ng trypsin with BBI added to achieve a final concentration of 10 μg/ml; 5) UC sample incubated in Tris at pH 8.0 with BBIC added to achieve a final concentration of 10 μg/ml; 6) Control-contained 5 ng trypsin with BBIC added to achieve a final concentration of 10 μg/ml.
Twelve percent sodium diodecyl sulfate (SDS) polyacrylamide gels of 0.75 mm thickness were prepared containing 0.1% gelatin. A 2% gelatin stock was prepared in advance by dissolving gelatin in warm distilled water. Samples were placed in the gel wells in standard SDS-gel-loading buffer that contained 0.1% SDS but lacked beta-mercaptoethanol. They were not boiled prior to loading. The gels were run at 200 V for 40 minutes in a Bio-Rad Mini Protean II apparatus and then soaked in distilled water containing 2% Triton X-100 on a gyrorotary shaker for 15 minutes at 20° C. […]

[6] = tested on: cells of patients with Bloom's syndrome; conditions: Kennedy et al., 1984; cited from earlier work

Molecule | levels of proteolytic activity in colon mucosa of DMH-exposed animals [1] | Protease Activity/μg protein, Glt-Gly-Arg-MCA, Mean [1] [RFU/hr/Ag protein] | Protease Activity/μg protein, Boc-Val-Leu-Lys-MCA, Mean [1] [RFU/hr/Ag protein] | Protease Activity/μg protein, Boc-Val-Pro-Arg-MCA, Mean [1] [RFU/hr/Ag protein] | order of activity, inhibition of H2O2 formation [2] | radiation induced transformation in C3H10T1/2 cells [3] | effect upon the health of the mice [4] | inhibition of proteolytic activity of trypsin [5] | levels of chromosome abnormalities [6]
CNNC [DMH, dimethylhydrazine, reference compound] | highly significant elevation | 6.15 | 10.15 | 43.43 | – | – | – | – | –
B1 | – | – | – | – | PtI-1≥PCI-2>PtI-2>COI>BBI>TOOI>LBI>SBTI | – | – | – | –
B2 | not significantly different from control animals; also recorded: reduction in levels of these proteolytic activities | 0.81 | 1.96 | 22.22 | PtI-1≥PCI-2>PtI-2>COI>BBI>TOOI>LBI>SBTI | suppresses radiation induced transformation in C3H10T1/2 cells | no adverse effect upon the health of the mice | effectively inhibit the proteolytic activity of trypsin | reduce the levels of chromosome abnormalities
B3 | – | – | – | – | PtI-1≥PCI-2>PtI-2>COI>BBI>TOOI>LBI>SBTI | – | – | – | –
